According to US20180364250:

Test system: OTUB1

Chain of UBCH5C (chain, as listed by the source): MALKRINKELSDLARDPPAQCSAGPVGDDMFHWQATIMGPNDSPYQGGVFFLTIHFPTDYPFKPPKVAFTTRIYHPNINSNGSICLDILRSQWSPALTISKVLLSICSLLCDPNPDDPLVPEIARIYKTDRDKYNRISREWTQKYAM

In the case of UBCH5C, the “free ubiquitin released in a real-time deubiquitinase assay (3 µM OTUB1 with or without UbcH5c, 1 nM Atto532-tagged ubiquitin, 1 nM tIVR)” value is reported as “OTUB1 activity is upregulated by UbcH5c, and this was detected by the experiment”.
